B1: BsADC (BacSub), ADC from B. subtilis (Bacillus subtilis subsp. subtilis str. 168) (protein)
chain 1: MYRTMMSGKLHRATVTEANLNYVG
chain 2: SITIDEDLIDAVGMLPNEKVQIVNNNNGARLETYIIPGKRGSGVICLNGAAARLVQEGDKVIIISYKMMSDQEAASHEPKVAVLNDQNKIEQMLGNEPARTIL
B2: LisMon, ADC from Listeria Monocytogenes (Listeria monocytogenes EGD-e) (protein)
chain 1: MFRTMMNGKIHRATVTEANLNYVG
chain 2: SITIDSAILEAVDMLPNEKVQIVNNNNGARIETYIIPGEPGSGVICLNGAAARHVQVGDVVIIMSYGMFTDEEAKTHEPKIVVLDEKNHIEMILPEEKAHTTL
B3: BacThe, ADC from Bacteroides thetaiotaomicron (Bacteroides thetaiotaomicron VPI-5482) (protein)
chain 1: MMIEVLKSKIHCARVTEANLNYMG
chain 2: SITIDEDLLDAANMIPGEKVYIADNNNGERFETYIIKGERGSGKICLNGAAARKVQPDDIVIIMSYALMDFEEAKSFKPTVIFPDPATNSVVK
B4: CjADC (CorJei), L-aspartate α-decarboxylase from Corynebacterium jeikeium (Corynebacterium jeikeium K411) (protein)
chain 1: MLRTMLKSKIHRATVTQADLHYVG
chain 2: SCTIDADLMEAADILEGEQIDIVDIDNGNRLTTYAITGDRGTGVIGINGAAARLISPGDLVIIIGYAQYSEEDLKNYASRVVFVDGNNKQVELGGDPAQVPDGSGLKNPRHPEA
B5: CorGlu, ADC from Corynebacterium glutamicum (Corynebacterium glutamicum ATCC 13032) (protein)
chain 1: MLRTILGSKIHRATVTQADLDYVG
chain 2: SVTIDADLVHAAGLIEGEKVAIVDITNGARLETYVIVGDAGTGNICINGAAAHLINPGDLVIIMSYLQATDAEAKAYEPKIVHVDADNRIVALGNDLAEALPGSGLLTSRSI

Columns and labels:
N[C@@H](CC(=O)O)C(=O)O = assay: HPLC of beta-alanine, Michaelis-Menten fit; format: biochemical, Corynebacterium jeikeium; settings: sodium L-aspartate 1-100 mM, pH 7.0, 37 °C, 5 min
Source text: HPLC of beta-alanine, Michaelis-Menten fit on CjADC (CorJei), L-aspartate α-decarboxylase from Corynebacterium jeikeium

purified protein = substrate: N[C@@H](CC(=O)O)C(=O)O; assay: purified protein; settings: sodium L-aspartate 1-100 mM, pH 7.0, 37 °C, 5 min

Molecule | Km (N[C@@H](CC(=O)O)C(=O)O) [mM] | kcat (N[C@@H](CC(=O)O)C(=O)O) [s⁻¹] | kcat/Km (N[C@@H](CC(=O)O)C(=O)O) [M⁻¹ s⁻¹] | Km (purified protein) [mM]
CjADC (CorJei), L-aspartate α-decarboxylase from Corynebacterium jeikeium (Corynebacterium jeikeium K411; C26V/I88M/R3K/Y90F) | 2.2 ± 0.5 | 209.2 ± 0.8 | 95100 ± 1600 | –
CjADC (CorJei), L-aspartate α-decarboxylase from Corynebacterium jeikeium (Corynebacterium jeikeium K411; C26V/I88M/Y90F) | 2.6 ± 0.6 | 171.5 ± 0.8 | 61200 ± 1300 | –
CjADC (CorJei), L-aspartate α-decarboxylase from Corynebacterium jeikeium (Corynebacterium jeikeium K411; I88L/Y90F) | 3.9 ± 0.1 | 88.6 ± 2.8 | 22700 ± 500 | –
CjADC (CorJei), L-aspartate α-decarboxylase from Corynebacterium jeikeium (Corynebacterium jeikeium K411; C26V/I88M) | 3.6 ± 0.2 | – | – | –
CjADC (CorJei), L-aspartate α-decarboxylase from Corynebacterium jeikeium (Corynebacterium jeikeium K411; C26V/Y90F) | 4.1 ± 0.3 | – | – | –
CjADC (CorJei), L-aspartate α-decarboxylase from Corynebacterium jeikeium (Corynebacterium jeikeium K411; I88M/Y90F) | 3.2 ± 0.4 | – | – | –
B1 | – | – | – | 4.2 ± 0.3
B2 | – | – | – | 6.0 ± 0.2
B3 | – | – | – | 8.9 ± 0.4
B4 | – | – | – | 3.6 ± 0.2
B5 | – | – | – | 4.5 ± 0.1
